Test [1] addresses Hepatocyte Growth Factor (HGF), species not stated (Homo sapiens (Human)) (UniProt P14210). Nature of the test: ^3H Dihexa binding to HGF (FIG. 43), repeated in the text.
For test [2] the target is unchanged. The test can be described thus: ^3H Dihexa incubated with different concentrations of HGF, Biogel P6 columns, scintillation counting.
For test [3], the target named is human Hepatocyte Growth Factor (HGF) (human) (UniProt P14210). Nature of the test: competition with ^3H-Hinge for soluble HGF (1.25 ng), Bio-Gel P6 spin columns, scintillation counting.
human Hepatocyte Growth Factor (HGF) (human), sequence (P14210 32-728 limits assumed): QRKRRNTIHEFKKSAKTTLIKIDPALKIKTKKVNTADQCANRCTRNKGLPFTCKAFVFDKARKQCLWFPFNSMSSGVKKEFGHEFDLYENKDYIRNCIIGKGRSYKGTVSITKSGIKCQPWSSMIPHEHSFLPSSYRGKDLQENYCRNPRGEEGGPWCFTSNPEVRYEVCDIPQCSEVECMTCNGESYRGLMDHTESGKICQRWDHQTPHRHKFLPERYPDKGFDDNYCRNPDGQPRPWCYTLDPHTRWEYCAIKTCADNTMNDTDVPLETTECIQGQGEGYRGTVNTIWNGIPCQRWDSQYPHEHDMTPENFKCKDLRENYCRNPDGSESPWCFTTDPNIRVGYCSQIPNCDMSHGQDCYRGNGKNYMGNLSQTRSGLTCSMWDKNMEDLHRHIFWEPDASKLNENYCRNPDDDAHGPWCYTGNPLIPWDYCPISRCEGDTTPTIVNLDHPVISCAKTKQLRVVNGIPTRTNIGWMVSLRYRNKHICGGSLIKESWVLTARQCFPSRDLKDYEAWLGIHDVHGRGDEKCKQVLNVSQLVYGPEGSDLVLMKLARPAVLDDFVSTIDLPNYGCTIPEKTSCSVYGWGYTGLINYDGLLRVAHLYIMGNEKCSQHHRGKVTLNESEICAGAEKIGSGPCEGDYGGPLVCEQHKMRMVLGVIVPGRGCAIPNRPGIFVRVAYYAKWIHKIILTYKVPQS
For test [4] the target is unchanged. Nature of the test: competition with ^3H-Hinge for soluble HGF.

Hepatocyte Growth Factor (HGF), species not stated (Homo sapiens (Human)), sequence (P14210 32-494 limits assumed, form in doubt, chain 1 of 2): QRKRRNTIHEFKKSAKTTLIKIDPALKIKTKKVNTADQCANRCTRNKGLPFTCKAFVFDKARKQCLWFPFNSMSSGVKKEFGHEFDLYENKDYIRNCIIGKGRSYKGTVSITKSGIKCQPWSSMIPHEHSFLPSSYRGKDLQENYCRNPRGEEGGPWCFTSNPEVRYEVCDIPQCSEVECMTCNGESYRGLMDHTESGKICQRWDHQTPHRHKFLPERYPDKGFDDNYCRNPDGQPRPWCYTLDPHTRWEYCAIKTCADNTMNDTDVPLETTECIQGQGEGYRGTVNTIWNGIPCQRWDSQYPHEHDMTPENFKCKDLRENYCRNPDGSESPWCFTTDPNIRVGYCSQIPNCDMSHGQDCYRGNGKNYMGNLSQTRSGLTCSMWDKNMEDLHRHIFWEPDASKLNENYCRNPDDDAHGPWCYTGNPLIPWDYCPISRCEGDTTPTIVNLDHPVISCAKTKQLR
Hepatocyte Growth Factor (HGF), species not stated (Homo sapiens (Human)), sequence (P14210 495-728 limits assumed, form in doubt, chain 2 of 2): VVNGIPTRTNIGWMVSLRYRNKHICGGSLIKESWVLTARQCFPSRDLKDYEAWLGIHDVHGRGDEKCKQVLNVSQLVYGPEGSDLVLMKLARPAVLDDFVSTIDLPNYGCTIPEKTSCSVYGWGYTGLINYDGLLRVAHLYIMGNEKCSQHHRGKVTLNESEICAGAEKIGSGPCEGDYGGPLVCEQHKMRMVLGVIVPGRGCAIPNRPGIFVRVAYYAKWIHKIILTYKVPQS

As a reminder, the Kd is the free concentration of one partner at which half of the binding sites on the other are occupied at equilibrium, for simple one-to-one binding. Higher therefore signals a looser complex. On to “Dihexa (N-hexanoic-Tyr-Ile-(6)-aminohexanoic amide) (peptide)”, for which the Kd in test [1] was found to be 0.22 pM; in test [2], 0.221 pM.
Usually Ki stands for the equilibrium dissociation constant of an inhibitor or competing ligand from its target. Low readings indicate tighter binding, high ones weaker binding. As for D-Nle-Cys-Ile-NH-(CH2)5-CONH2 (peptide), the Ki in test [3] and in test [4] was 133 pM throughout.
D-Nle-Trp-Ile-NH-(CH2)5-CONH2 (peptide) gave a Ki in test [3] of 3370 pM.
Regarding D-Nle-Met-Ile-NH-(CH2)5-CONH2 (peptide), the Ki in test [3] worked out at 138000 pM; in test [4], 137000 pM.

For the origin of these results see patent publication US20140051633A1.
